Measurements published in publication PMC8227597.

Biological target: Biotinylated human ACE2 (angiotensin-converting enzyme 2) (human) (UniProt Q9BYF1)
Test: SPR

Trimer spike of SARS-CoV-2, furin cleavage site deleted and two stabilizing mutations, C-terminal His-tag (domain or fragment)
Kd: 0.7 nM
